Results as given in paper PMC10244618.
Values joined by “and” are separate entries in the source; they are usually repeats but may differ in a detail not shown here. Equal values may be shown once.

B1: NF2 (merlin) isoform 7, human, full length (507 aa, lacks exons 2-3 = isoform-1 residues 39-121; exon-16 C-terminus), P35240-4 (parent)
chain: MAGAIASRMSFSSLKRKQPKTFTVRIVTMDAEMEFNCEVKKQILDEKIYCPPEASVLLASYAVQAKYGDYDPSVHKRGFLAQEELLPKRVINLYQMTPEMWEERITAWYAEHRGRARDEAEMEYLKIAQDLEMYGVNYFAIRNKKGTELLLGVDALGLHIYDPENRLTPKISFPWNEIRNISYSDKEFTIKPLDKKIDVFKFNSSKLRVNKLILQLCIGNHDLFMRRRKADSLEVQQMKAQAREEKARKQMERQRLAREKQMREEAERTRDELERRLLQMKEEATMANEALMRSEETADLLAEKAQITEEEAKLLAQKAAEAEQEMQRIKATAIRTEEEKRLMEQKVLEAEVLALKMAEESERRAKEADQLKQDLQEAREAERRAKQKLLEIATKPTYPPMNPIPAPLPPDIPSFNLIGDSLSFDFKDTDMKRLSMEIEKEKVEYMEKSKHLQEQLNELKTEIEALKLKERETALDILHNENSDRGGSSKHNTIKKPQAQGRRPICI

Variants of: B1
Test: reverse yeast two-hybrid deep mutational scan (rY2H-seq): NF2 isoform 7 mutant library as bait mated with wild-type prey strains; selection on medium lacking adenine for non-interacting pairs; NextSeq paired-end sequencing; enrichment vs …
Settings: yeast diploids after mating (RBait_S3 x RPrey_S3), 30 °C, selection for reporter genes on NB agar, HIGHER = WEAKER BINDING (the opposite of display enrichments): higher = stronger loss of interaction: reverse Y2H selects yeast in which bait and prey do NOT interact (growth without adenine), so a …, hits-only table, scale: rY2H score, numbering: uniprot, sequence starts at 1
[1] = with EMILIN1 (elastin microfibril interfacer 1), Q9Y6C2, human tyrosine kinase ABL2 co-expressed as the active kinase …
[2] = with KDM1A (lysine-specific histone demethylase 1A; the table's label AOF2 is a gene synonym of KDM1A), O60341, human ABL2 co-expressed as the kinase-dead K35M mutant …
[3] = with KDM1A (lysine-specific histone demethylase 1A; the table's label AOF2 is a gene synonym of KDM1A), O60341, human tyrosine kinase ABL2 co-expressed as the active kinase …
[4] = with PIK3R3 (phosphatidylinositol 3-kinase regulatory subunit gamma), Q92569, human tyrosine kinase ABL2 co-expressed as the active kinase …
[5] = with NF2 C-terminal domain (wild type; homomeric NF2-NF2 interaction), P35240, human ABL2 co-expressed as the kinase-dead K35M mutant …, partner unresolved

enrichment [1] | enrichment [2] | enrichment [3] | enrichment [4] | enrichment [5] | Variant
4.71 |  |  |  |  | F79A
6 | 11.8 and 11.3 |  | 9.73 and 7.27 | 6.36 and 7.06 | K313T
2.72 |  |  |  |  | D162P
1.44 |  |  |  |  | R263G
6.17 |  |  |  | 3.55 | K460E
1.59 |  |  |  |  | I404K
2.16 |  |  |  |  | K386Q
2 |  |  | 3.5 and 2.86 |  | S73K
2.88 |  | 1.78 and 2.82 |  |  | R335C
2.52 |  |  |  |  | R335E
7.24 |  |  |  |  | L315W
1.45 | 1.84 and 3.01 |  |  | 1.8 | E323A
1.63 | 3.99 |  |  |  | F426A
6.93 |  |  |  |  | V74S
2.62 |  |  |  |  | N402Q
1.47 | 1.53 |  |  |  | N402L
1.41 |  |  |  |  | E252K
2.3 |  |  |  | 2.18 | L300C
2.55 |  |  | 6.22 |  | T168A
1.59 |  |  |  |  | T189I

enrichment [1] | enrichment [2] | enrichment [3] | enrichment [4] | enrichment [5] | Variant
4.63 | 2.83 and 2.72 |  |  |  | L342T
1.45 |  |  |  |  | L478A
1.65 | 1.65 |  |  | 1.58 | S488R
1.74 |  |  |  | 2.73 | F415A
1.55 |  |  | 3.14 |  | A393K
4.14 |  |  |  | 4.82 | P174R
1.67 | 1.47 |  |  |  | Q324Y
1.87 |  |  |  |  | A381L
1.89 |  |  |  |  | E337A
8.86 |  |  |  |  | Q306E
1.39 |  |  |  |  | R77W
2.78 | 3.09 |  |  |  | L348K
1.96 |  |  |  |  | E367K
2.39 and 4 |  |  | 6.05 |  | T285L
2.68 | 3.73 |  |  |  | E325A
6.21 | 4.73 |  |  |  | E325T
5.83 |  |  |  |  | A350E
1.52 |  |  |  |  | K229L
1.52 |  |  |  |  | R248P
3.37 | 2.24 and 1.83 | 4.9 |  |  | I307L

Continued, variant first:

Variant | enrichment [1] | enrichment [2] | enrichment [3] | enrichment [4] | enrichment [5]
R268E | 8.98 and 8.09 | 8.2 and 3.3 | 7.56 | 11.6 | 
G157K | 3.64 |  |  | 7.92 | 
G157E | 5.67 and 3.65 |  |  | 5.03 and 2.8 | 
N143I | 5.68 and 2.91 |  |  |  | 
R471G | 1.53 |  |  |  | 
D484K | 2.87 | 4.88 |  |  | 
R263E | 2.7 |  |  |  | 3.74
L390C | 5.21 and 8.08 | 6.37 |  | 10.7 | 4.75
D198N | 1.92 |  |  |  | 
K330A | 2.6 | 1.85 | 4.79 |  | 
A266K | 9.16 |  | 2.16 |  | 
L422A | 1.78 | 2.07 |  |  | 
L355E | 1.61 |  |  |  | 1.76
T269E | 4.01 |  |  |  | 3.61
E362K | 4.17 |  |  |  | 
K386T | 7.62 | 5.27 |  |  | 
L314N | 18.6 |  |  |  | 
S73L | 1.58 and 3.38 |  |  | 5.98 | 3.01
E391L | 2 |  |  |  | 
L375A | 4.49 |  | 3.07 |  | 
L315K | 4.2 |  |  |  | 1.46

Variant | enrichment [1] | enrichment [2] | enrichment [3] | enrichment [4] | enrichment [5]
E323L | 2.75 |  | 1.55 |  | 3.82
E323G | 1.92 |  |  |  | 
A240T | 1.45 |  |  |  | 
D271L | 2.2 | 4.25 |  |  | 
H159L | 2.93 |  | 4.15 and 7.93 | 6.72 | 
F426V | 2.88 |  |  |  | 
T461I | 1.49 |  |  |  | 
K395Q | 1.8 |  |  |  | 
D69K | 1.87 |  | 6.13 |  | 
R379E | 3.11 and 8.92 | 6.74 | 5.6 |  | 1.99
D428K | 4.1 | 2.24 |  |  | 
Q376K | 2.11 |  |  |  | 
P410K | 1.53 | 9.12 and 4.16 |  |  | 
R383K | 2.82 |  |  |  | 1.66
D299T | 1.88 |  |  |  | 
D299L | 3.97 and 2.17 | 3.02 and 4.36 | 4.23 |  | 3.22
S55L | 2.05 |  |  |  | 
S13F | 1.87 |  |  |  | 
A247K | 4.58 |  |  |  | 
A287T | 1.8 |  |  |  | 
V209A | 5.24 |  |  |  | 

Variant | enrichment [1] | enrichment [2] | enrichment [3] | enrichment [4] | enrichment [5]
N416R | 3.29 |  |  |  | 
Q317R | 1.98 |  |  |  | 
L151E | 15.6 |  |  |  | 
N480A | 1.73 |  |  |  | 
K144L | 2.68 |  | 3.56 |  | 
G146A | 3.91 and 4.27 |  |  |  | 
M326R | 1.39 |  |  |  | 
K304W | 13.1 and 10.8 | 17 |  |  | 
T332A | 4.79 | 1.86 and 5.52 | 2.16 |  | 2.4
T332E | 4.23 and 3.34 | 7.44 |  |  | 
A381T | 1.45 |  |  |  | 1.6
L371A | 2.9 and 1.56 |  |  | 1.38 | 2.88
L58P | 6.14 | 7.73 | 4.64 and 3.28 | 6.79 and 6.06 | 2.09
K318A | 5.52 | 3.56 | 3.09 | 5.56 | 
E309A | 2.33 |  |  |  | 
T397L | 2.34 |  |  |  | 
K469A | 5.72 |  | 3 |  | 2.32 and 4.81
E444A | 10.3 and 7.31 |  |  |  | 
R270K | 5.67 |  |  | 4.09 | 
Q261Y | 2.07 |  |  |  | 
Q345E | 3.31 |  | 3.73 | 3.74 | 

Variant | enrichment [1] | enrichment [2] | enrichment [3] | enrichment [4] | enrichment [5]
H75E | 6.72 | 2.15 |  | 11.9 and 8.5 | 2.7
P98L | 1.71 |  |  |  | 
E123D | 1.52 | 1.75 |  |  | 
S60F | 3.78 |  |  |  | 
P399R | 2.33 |  |  |  | 
P399K | 1.52 |  |  |  | 
T336K | 4.16 |  | 2.26 and 6.75 | 2.98 | 
P407R | 4.09 |  |  |  | 
A107E | 6.39 |  |  | 6.23 | 
S489E | 7.56 |  |  |  | 
R166N | 2.2 |  | 1.82 |  | 
R166S | 8.73 |  |  |  | 
D476V | 5.43 |  |  |  | 
E148K | 2.78 and 2.12 |  | 1.49 |  | 
A406Q | 2.56 | 1.87 |  |  | 
A406K | 2.13 |  |  |  | 
E259K | 3.41 |  |  |  | 
Q279E | 2.35 | 4.82 |  |  | 
L156W | 1.61 and 3.25 | 4.82 and 4.33 | 5.87 | 3.91 and 3.42 | 5.5 and 4.13
R248K | 1.55 |  |  |  | 
A290L | 38.6 |  |  |  | 
